pKd: −log10 of the molar value. Like-named read-outs stand apart in the source and are kept apart here.

Assay [1] addresses BiP-His6 (WT-BiP, aa 19-637) (human) (UniProt P11021). In words: BLI. For orientation: Biolayer interferometry detects binding as a change in optical thickness at a sensor tip.
Assay [2] has the same target. In words: BLI. The source holds these as a separate data set.

Sequence of BiP-His6 (WT-BiP, aa 19-637) (human) (P11021 19-637): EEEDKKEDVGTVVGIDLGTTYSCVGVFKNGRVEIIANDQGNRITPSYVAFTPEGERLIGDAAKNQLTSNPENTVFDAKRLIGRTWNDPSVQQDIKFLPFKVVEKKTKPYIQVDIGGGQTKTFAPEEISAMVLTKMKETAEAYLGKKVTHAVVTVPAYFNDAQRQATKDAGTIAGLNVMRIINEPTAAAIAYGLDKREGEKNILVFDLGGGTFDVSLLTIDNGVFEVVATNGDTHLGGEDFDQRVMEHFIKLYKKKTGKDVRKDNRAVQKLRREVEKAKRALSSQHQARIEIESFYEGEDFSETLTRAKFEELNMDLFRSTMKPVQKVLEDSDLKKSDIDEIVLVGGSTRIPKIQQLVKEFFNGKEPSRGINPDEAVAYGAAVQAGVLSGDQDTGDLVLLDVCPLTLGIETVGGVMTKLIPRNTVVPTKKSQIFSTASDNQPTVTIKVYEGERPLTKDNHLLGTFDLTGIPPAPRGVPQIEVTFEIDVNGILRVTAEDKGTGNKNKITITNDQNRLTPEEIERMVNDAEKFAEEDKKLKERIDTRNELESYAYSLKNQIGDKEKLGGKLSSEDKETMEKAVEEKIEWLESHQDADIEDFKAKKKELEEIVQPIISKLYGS

The term pKd denotes the negative decadic logarithm of the Kd, by convention in mol/L. High values mean a low Kd, low ones a high Kd. Regarding “E234G-HYPE (aa 102-458) (from UniProt Q9BVA6) (enzyme)”, the pKd was 4.74 in assay [1] and 4.99 in assay [2].

The record behind these values is paper doi:10.1101/494930.
